# Results reported in PMC12618784.
# T1: Porin, Q94920
# T1 chain: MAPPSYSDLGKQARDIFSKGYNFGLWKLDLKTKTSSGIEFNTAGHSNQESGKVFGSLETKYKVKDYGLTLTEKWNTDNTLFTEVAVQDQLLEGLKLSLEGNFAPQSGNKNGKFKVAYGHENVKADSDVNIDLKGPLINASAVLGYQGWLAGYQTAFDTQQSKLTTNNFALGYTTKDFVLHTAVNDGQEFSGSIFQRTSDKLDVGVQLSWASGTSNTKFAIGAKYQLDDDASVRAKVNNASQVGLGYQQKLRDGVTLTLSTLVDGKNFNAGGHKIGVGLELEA
# T2: Porin::HA, Q94920
# T2 chain: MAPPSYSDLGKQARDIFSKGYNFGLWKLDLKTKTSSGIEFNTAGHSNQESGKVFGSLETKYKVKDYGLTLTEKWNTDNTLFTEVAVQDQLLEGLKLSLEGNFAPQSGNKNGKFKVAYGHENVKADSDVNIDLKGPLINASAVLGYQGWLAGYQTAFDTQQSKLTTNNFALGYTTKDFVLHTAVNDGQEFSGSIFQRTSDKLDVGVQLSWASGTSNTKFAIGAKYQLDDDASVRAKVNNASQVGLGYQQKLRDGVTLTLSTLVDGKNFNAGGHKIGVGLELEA
# T3: Mitofilin, P91928
# T3 chain: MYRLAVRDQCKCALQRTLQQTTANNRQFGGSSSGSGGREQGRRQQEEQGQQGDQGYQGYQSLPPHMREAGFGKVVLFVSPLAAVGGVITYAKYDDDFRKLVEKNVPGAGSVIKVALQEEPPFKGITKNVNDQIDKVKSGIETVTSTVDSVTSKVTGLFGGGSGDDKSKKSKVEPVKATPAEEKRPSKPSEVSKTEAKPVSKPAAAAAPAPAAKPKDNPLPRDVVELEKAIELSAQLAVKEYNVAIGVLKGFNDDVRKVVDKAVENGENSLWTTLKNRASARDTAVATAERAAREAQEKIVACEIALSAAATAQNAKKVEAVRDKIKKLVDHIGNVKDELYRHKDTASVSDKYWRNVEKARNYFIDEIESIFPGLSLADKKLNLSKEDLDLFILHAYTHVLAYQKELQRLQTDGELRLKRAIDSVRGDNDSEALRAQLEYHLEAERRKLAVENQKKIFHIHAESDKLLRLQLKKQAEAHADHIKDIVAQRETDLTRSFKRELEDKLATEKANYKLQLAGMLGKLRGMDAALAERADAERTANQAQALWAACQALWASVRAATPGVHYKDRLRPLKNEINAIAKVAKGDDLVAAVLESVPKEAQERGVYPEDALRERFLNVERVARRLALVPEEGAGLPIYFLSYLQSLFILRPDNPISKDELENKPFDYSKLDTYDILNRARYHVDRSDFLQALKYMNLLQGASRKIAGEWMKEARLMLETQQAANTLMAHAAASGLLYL
# T4: Sphingosine-1-phosphatase lyase (Sply), Q9V7Y2
# T4 chain: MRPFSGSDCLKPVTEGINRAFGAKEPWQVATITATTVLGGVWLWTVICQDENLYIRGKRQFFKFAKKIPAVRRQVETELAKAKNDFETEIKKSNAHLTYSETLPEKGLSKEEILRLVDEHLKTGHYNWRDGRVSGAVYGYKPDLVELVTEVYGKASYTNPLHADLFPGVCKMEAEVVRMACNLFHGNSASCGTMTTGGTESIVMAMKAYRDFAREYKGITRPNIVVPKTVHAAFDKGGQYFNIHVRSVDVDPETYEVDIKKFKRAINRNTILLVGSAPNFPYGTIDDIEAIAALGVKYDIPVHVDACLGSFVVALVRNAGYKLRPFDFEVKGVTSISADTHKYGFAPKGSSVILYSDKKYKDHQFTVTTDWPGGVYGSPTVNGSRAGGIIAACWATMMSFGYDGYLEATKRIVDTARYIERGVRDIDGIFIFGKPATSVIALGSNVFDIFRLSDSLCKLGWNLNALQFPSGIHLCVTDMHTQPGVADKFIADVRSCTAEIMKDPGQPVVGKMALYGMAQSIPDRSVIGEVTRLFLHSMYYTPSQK
# Columns and labels:
# Porin, Q94920 [1] = biological target: T1, Porin, Q94920; assay: pull-down (anti-HA immunoprecipitation) with mass spectrometry; settings: chain shown with the change; 3rd instar larval muscle tissue (mef2-Gal4); four individual biological replicates; read off a plot
# Porin::HA, Q94920 = biological target: T2, Porin::HA, Q94920; assay: co-immunoprecipitation (anti-GFP beads), quantified blot; settings: chain shown with the change; transfected Sf21 cells; values normalised to the corresponding amounts of precipitated Dmel\Tmem43; parent: est. 0.75; read off a plot
# Mitofilin, P91928 = biological target: T3, Mitofilin, P91928; assay: TurboID biotin proximity labelling with mass spectrometry; settings: chain shown with the change; 3rd instar larval muscle tissue (mef2-Gal4); parent: 1
# Porin, Q94920 [2] = biological target: T1, Porin, Q94920; assay: as above; settings: chain shown with the change; 3rd instar larval muscle tissue (mef2-Gal4); parent: 1
# SERCA, P22700 = assay: as above; settings: chain shown with the change; 3rd instar larval muscle tissue (mef2-Gal4); parent: 1
# Chain of SERCA, P22700 (P22700 whole entry, the tested form may be a part): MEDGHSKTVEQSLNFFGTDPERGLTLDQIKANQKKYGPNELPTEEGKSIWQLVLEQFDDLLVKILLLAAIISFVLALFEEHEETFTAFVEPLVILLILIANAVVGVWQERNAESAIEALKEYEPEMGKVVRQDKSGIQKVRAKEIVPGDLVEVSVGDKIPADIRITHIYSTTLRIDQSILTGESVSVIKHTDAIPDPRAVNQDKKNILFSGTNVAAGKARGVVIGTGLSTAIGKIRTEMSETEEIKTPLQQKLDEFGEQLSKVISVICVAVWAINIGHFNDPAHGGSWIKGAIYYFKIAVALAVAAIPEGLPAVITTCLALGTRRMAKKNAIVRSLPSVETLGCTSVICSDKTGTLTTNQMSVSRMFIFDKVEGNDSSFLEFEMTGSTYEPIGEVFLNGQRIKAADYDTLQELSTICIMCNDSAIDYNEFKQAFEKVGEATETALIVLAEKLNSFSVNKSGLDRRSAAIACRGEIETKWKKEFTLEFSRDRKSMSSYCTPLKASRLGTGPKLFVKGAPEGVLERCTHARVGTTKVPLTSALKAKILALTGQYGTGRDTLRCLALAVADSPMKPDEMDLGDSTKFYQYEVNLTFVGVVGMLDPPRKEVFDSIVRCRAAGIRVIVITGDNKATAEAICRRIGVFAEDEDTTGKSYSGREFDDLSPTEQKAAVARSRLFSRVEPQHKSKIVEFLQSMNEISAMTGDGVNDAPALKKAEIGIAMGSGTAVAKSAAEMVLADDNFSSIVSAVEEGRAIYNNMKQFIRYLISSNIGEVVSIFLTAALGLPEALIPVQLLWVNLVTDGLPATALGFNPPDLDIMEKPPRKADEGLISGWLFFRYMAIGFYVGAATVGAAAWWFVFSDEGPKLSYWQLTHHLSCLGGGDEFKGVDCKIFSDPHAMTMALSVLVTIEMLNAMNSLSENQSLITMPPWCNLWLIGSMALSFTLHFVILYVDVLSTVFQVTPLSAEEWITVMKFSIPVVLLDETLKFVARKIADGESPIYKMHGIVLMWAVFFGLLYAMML
# [3] = biological target: T4, Sphingosine-1-phosphatase lyase (Sply), …; assay: as above; settings: chain shown with the change; 3rd instar larval muscle tissue (mef2-Gal4); parent: 1
binder,measurement,setting,value
"Dmel\Tmem43wt::HA, Q9VSB9 p.S333L (protein) MASLSETLRSHWPIALFGVILFVAGGTELYWNEGRAVHNMMALDEAHADIYSVRFTEEEQEVGLEGRIVHLSGPILVGEPLTEPDYNIQLLAVKLRRRVQMYQWVEEAVEHNYGDSVGTTHSDSRTYYYTREWRDKIVDSRNFYNRHGHTNPSHFPIESHVQVADAVFIGRYELGAEVKEKFNNYQELTSDIRPEDSGVKLHLGIYYHTNDVFNPEVGDLRLLFSFAGMEGEVFSVVGKLSGNKLVPYITSRGVPVLLVYPGGLSVQEVFRLEARAQVLHTWWWRFVGWLLIFFGVTCNTKILRLLFVRVPLLVALAPDPQFPVTGNLLIAFLLALTIAAVAWILHRPVIGACLLLAGASPYVWFTRNLVDYHRLD",ratio to parent,"Porin, Q94920 [1]",0.4
"Dmel\Tmem43wt::GFP, Q9VSB9 p.S333L (protein) MASLSETLRSHWPIALFGVILFVAGGTELYWNEGRAVHNMMALDEAHADIYSVRFTEEEQEVGLEGRIVHLSGPILVGEPLTEPDYNIQLLAVKLRRRVQMYQWVEEAVEHNYGDSVGTTHSDSRTYYYTREWRDKIVDSRNFYNRHGHTNPSHFPIESHVQVADAVFIGRYELGAEVKEKFNNYQELTSDIRPEDSGVKLHLGIYYHTNDVFNPEVGDLRLLFSFAGMEGEVFSVVGKLSGNKLVPYITSRGVPVLLVYPGGLSVQEVFRLEARAQVLHTWWWRFVGWLLIFFGVTCNTKILRLLFVRVPLLVALAPDPQFPVTGNLLIAFLLALTIAAVAWILHRPVIGACLLLAGASPYVWFTRNLVDYHRLD",response,"Porin::HA, Q94920",0.05
"Dmel\Tmem43wt::TurboID, Q9VSB9 p.S333L (protein) MASLSETLRSHWPIALFGVILFVAGGTELYWNEGRAVHNMMALDEAHADIYSVRFTEEEQEVGLEGRIVHLSGPILVGEPLTEPDYNIQLLAVKLRRRVQMYQWVEEAVEHNYGDSVGTTHSDSRTYYYTREWRDKIVDSRNFYNRHGHTNPSHFPIESHVQVADAVFIGRYELGAEVKEKFNNYQELTSDIRPEDSGVKLHLGIYYHTNDVFNPEVGDLRLLFSFAGMEGEVFSVVGKLSGNKLVPYITSRGVPVLLVYPGGLSVQEVFRLEARAQVLHTWWWRFVGWLLIFFGVTCNTKILRLLFVRVPLLVALAPDPQFPVTGNLLIAFLLALTIAAVAWILHRPVIGACLLLAGASPYVWFTRNLVDYHRLD",ratio to parent,"Mitofilin, P91928",0.17
same,ratio to parent,"Porin, Q94920 [2]",0.13
same,ratio to parent,"SERCA, P22700",0.17
same,ratio to parent,[3],0.23
